Results as given in US6368619B1, “Hydrophobic preparations of hydrophilic species and process for their preparation” (Provalis UK Limited, priority 1993, dated 2002).
Blank lines part the entries; values can stand above or below the substance they belong to.

Columns and labels:
Format in all cases: physicochemical
[1] = Stability of oil preparations on storage, standing or freeze-thawing (appearance)
Experimental: Egg PC SUVs at a concentration of 100 mg PC/ml were prepared as in Example 1. An insulin solution at 10 mg/ml was made by preparing an aqueous suspension at a slightly higher concentration, adding glacial acetic acid at a rate of 20 mg/g of insulin used, and then adding sufficient water to give the desired insulin concentration. After mixing and standing for 15 minutes, a clear solution was formed. To 1.25 ml of SUVs in a test-tube, were added 1.25 ml of insulin solution, and the mixture shell-frozen and freeze-dried overnight. The following day, 0.252 g of oleic acid was added and the tube vortexed to completely “wet” the lyophilate.
The HRPO solution was divided into two -equal portions, and one portion was put through five freeze-thaw cycles by cooling repeatedly to +4° C., solidifying the oleic acid each time, before bringing it back to room temperature.
The same procedure employed as described in Example 19, except that bovine brain sphingomyelin was used instead of phosphatidyl choline, resulting in proportions by weight of insulin/sphingomyelin/oleic acid of 5/50/200.

[2] = Turbidity of oil preparations by optical density / absorbance (plate reader); conditions: Example 9: egg lysophosphatidyl choline, oleic acid, 4.6 mg insulin/g
Experimental: It is very much preferred that the preparations of the invention are optically clear and this can be monitored by measuring turbidity at visible wave lengths and, in some cases, by checking for sedimentation over a period of time. […]
Aprotinin was dissolved in distilled water at a concentration of 10 mg/ml. Hexadecyl phosphocholine (HDPoC) was dissolved in distilled water at a concentration of 100 mg/ml. To aliquots of 100 μl of aprotinin solution, volumes of HDPOC were added ranging from 0 through to 10, 20, 30, 40 to 50 μl. The mixtures were frozen at −20° C. and lyophilised overnight. The following day 100 μl of oleic acid was added to each sample and shaken for one hour at room temperature on an orbital shaker.
Octyl glucoside was dissolved in distilled water and dispensed into wells of a microplate to give the following amounts of amphiphile per well: −0, 0.5, 1.0, 1.5, 2.0, 2.5, 5, 7.5 and 10 mg. Aprotinin was dissolved in distilled water at a concentration of 5 mg/ml, and 100 μl was dispensed into each well above, containing 0.5 mg of protein. The plate was mixed well, frozen at −20° C. and lyophilised overnight. The following day, […] of oleic acid was added to each well. The plate was shaken at room temperature, and optical density measurements at 550 nm taken at intervals with a plate reader. A low absorbance value indicates a low level of scattering, and corresponds to effective dispersion of protein in oil.
The results, expressed in terms of optical density as a function of octyl glucoside concentration (at constant protein concentration) at different times after addition of oleic acid are given in the table and accompanying graph.

[3] = Dispersion of hydrophilic species/amphiphile array in hydrophobic solvent: visual optical clarity
[4] = Centrifugation of melanin dispersions in M818
[5] = Optical density at 600 nm of melanin solutions in oil (M818) and water; conditions: for Measurement at 600 nm, Water: Example 26: melanin alone in distilled water
Experimental: 10 mg of melanin were added to 1 ml of distilled water, and dissolved after raising pH with ammonium hydroxide solution. 50 ul of this concentrated solution was diluted 20-fold by addition to 950 ul of distilled water. To two rows of seven wells of a microplate 0, 12.5, 25, 37.5, and 50 ul of the dilute solution were added, and 12.5 and 25 ul of the concentrated solution. To each well of one row was added 100 ul of a soya phosphatidyl choline dispersion prepared by sonication for ten minutes with cooling at a concentration of 100 mg/ml. The other row was left untouched, the plate was mixed well, frozen at −20° C. and lyophilised overnight. The following day, 100 ul of M818 were added to wells in the row containing melanin/lipid complex, and 100 ul of distilled water was added to the wells in the row containing melanin alone. […] It will be seen from the table and accompanying graph that Beer-Lambert's law is obeyed over this concentration range (ie the response curve is linear), and that the behaviour of melanin is identical for both oil and aqueous solutions.

Substance: insulin
change in appearance (eg sedimentation) on storage ([1]; Example 5: 7 weeks storage under nitrogen in a sealed tube at room temperature): no apparent change in the appearance
appearance on standing ([1]; Example 20: sphingomyelin/oleic acid, room temperature for several days): solid opaque gel
appearance of gel on warming ([1]; Example 20: sphingomyelin/oleic acid, warming to 37° C.): clear solution again
absorbance at 600 nm [2]: 0.023
appearance of preparation ([3]; Example 5: egg PC SUVs, 0.252 g oleic acid, left overnight): yellow, optically clear dispersion displaying strong opalescence
appearance of dispersion ([3]; Example 6: 5 mg soy PC, 0.47 mg protein, 100 mg diolein, initially granular): became clear after 2 hours
appearance of dispersion ([3]; Example 8: DPPC SUVs 15 mg, 1.4 mg protein, 300 mg oleic acid): clear
appearance of dispersion ([3]; Example 9: egg lysophosphatidyl choline micelles, 0.3 g oleic acid): clear dispersion
insulin content of clear dispersion ([3]; Example 9: egg lysophosphatidyl choline, oleic acid): 4.6 mg insulin/g of oleic acid
appearance of dispersion ([3]; Example 10: soy PC SUVs, 300 mg Miglyol 810, following day): slightly opalescent
appearance of dispersion ([3]; Example 10: soy PC SUVs, 300 mg Miglyol 812, following day): completely clear
appearance of dispersion ([3]; Example 10: soy PC SUVs, 300 mg Miglyol 818, following day): completely clear
appearance of dispersion ([3]; Example 10: soy PC SUVs, 300 mg Miglyol 829, following day): turbid gel
appearance of dispersion ([3]; Example 10: soy PC SUVs, 300 mg Miglyol 840, following day): completely clear
appearance of solution ([3]; Example 20: bovine brain sphingomyelin, insulin/sphingomyelin/oleic acid 5/50/200, one hour mixing): completely clear solution
appearance of dispersions ([3]; Example 33: soy PC SUV, melts of tripalmitin, triheptadecanoin or tristearin with 2% oleic acid, 78 C, 1 to 2 hours): almost clear dispersions
appearance of dispersion ([3]; Example 36: AOT amphiphile, 200 mg octanol, standing overnight): clear after standing overnight

Measurement at 600 nm, Water ([5]; Concn 0.0625 mg/ml): 0.072
Measurement at 600 nm, Water ([5]; Concn 0.125 mg/ml): 0.159
Measurement at 600 nm, Water ([5]; Concn 0.187 mg/ml): 0.23
Measurement at 600 nm, Water ([5]; Concn 0.25 mg/ml): 0.333
Measurement at 600 nm, Water ([5]; Concn 1.25 mg/ml): 1.259
Measurement at 600 nm, Water ([5]; Concn 2.5 mg/ml): 2.653
Measurement at 600 nm, Miglyol ([5]; Example 26: melanin/soya PC complex in M818, Concn 0.0625 mg/ml): 0.078
Measurement at 600 nm, Miglyol ([5]; Example 26: melanin/soya PC complex in M818, Concn 0.125 mg/ml): 0.157
Measurement at 600 nm, Miglyol ([5]; Example 26: melanin/soya PC complex in M818, Concn 0.187 mg/ml): 0.23
Measurement at 600 nm, Miglyol ([5]; Example 26: melanin/soya PC complex in M818, Concn 0.25 mg/ml): 0.306
Measurement at 600 nm, Miglyol ([5]; Example 26: melanin/soya PC complex in M818, Concn 1.25 mg/ml): 1.565
Measurement at 600 nm, Miglyol ([5]; Example 26: melanin/soya PC complex in M818, Concn 2.5 mg/ml): 2.857
Substance: melanin
behaviour of dispersion on centrifugation ([4]; Example 26: dispersed in M818 by sonication in the absence of phosphatidyl choline): black dispersion, which sedimented out after centrifugation giving a clear supernatant
behaviour of dispersion on centrifugation ([4]; Example 26: melanin/lipid complex dispersed in M818): No such changes were observed after centrifugation
